Reference: patent US20260266848A1, “COMPOSITIONS AND METHODS FOR DIAGNOSING AND TREATING DYSTONIA” (Duke University, priority 2023, published 2026)

Key:
WT MEF EVs = experiment: Quantitative LC-MS/MS proteomics of EVs from ISRIB-treated WT MEF cultures; assay type: cell-based, mouse; design: key to ISRIB and DYT Parallel Direction / ISRIB and DYT Parallel Direction, Ctdsp1 / ISRIB and DYT Parallel Direction, Pcdh19 / ISRIB and DYT Parallel Direction, Tspan7 / ISRIB and DYT Parallel Direction, Myo1e / ISRIB and DYT Parallel Direction, Plpp3 / ISRIB and DYT Parallel Direction, Sh3bp4 / ISRIB and DYT Parallel Direction, Dnajc7 / ISRIB and DYT Parallel Direction, Drg1 / ISRIB and DYT Parallel Direction, Maea: YES = protein abundance effect similar to DYT/WT; details: EV protein abundance; for WT + ISRIB/WT Cohen's d: ISRIB-treated WT vs WT; for ISRIB and DYT Parallel Direction: WT + ISRIB vs WT, direction compared with DYT/WT
DYT-TOR1A MEF EVs = experiment: Quantitative LC-MS/MS proteomics of EVs from drug-treated DYT-TOR1A MEF cultures (ritonavir, salubrinal); assay type: cell-based, mouse; design: key to RTV Corrective Direction / RTV Corrective Direction, Grwd1 / RTV Corrective Direction, Srrm2 / RTV Corrective Direction, Rbm17 / RTV Corrective Direction, Dcaf8 / RTV Corrective Direction, Edil3 / RTV Corrective Direction, Timp3 / RTV Corrective Direction, Heatr3 / RTV Corrective Direction, Brd4 / RTV Corrective Direction, P3h4 / RTV Corrective Direction, Pacsin3 / RTV Corrective Direction, Naa50 / RTV Corrective Direction, Lpar6 / RTV Corrective Direction, Ndrg1 / RTV Corrective Direction, Kntc1 / RTV Corrective Direction, Cdk11b / RTV Corrective Direction, Sumo1 / RTV Corrective Direction, Lsm4 / RTV Corrective Direction, Hmga2 / RTV Corrective Direction, Cstf1 / RTV Corrective Direction, Tes / RTV Corrective Direction, Sbno1 / RTV Corrective Direction, Unc119b / RTV Corrective Direction, Cfdp1 / RTV Corrective Direction, Sec61b: YES = protein abundance effect opposite to DYT/WT; details: EV protein abundance; for RTV Corrective Direction: DYT + RTV (ritonavir) vs DYT, direction compared with DYT/WT; for DYT + RTV/DYT Cohen's d: ritonavir (RTV)-treated DYT vs DYT

Row | Molecule | WT + ISRIB/WT Cohen's d (WT MEF EVs) | ISRIB and DYT Parallel Direction (WT MEF EVs) | RTV Corrective Direction (DYT-TOR1A MEF EVs) | DYT + RTV/DYT Cohen's d (DYT-TOR1A MEF EVs)
1 | Fh (protein, UniProt P97807 42-507, looked up) Fumarate hydratase, …: ASQNSFRVEFDTFGELKVPTDKYYGAQTVRSTMNFKIGGATERMPIPVIQAFGILKRAAAEVNQEYGLDPKIASAIMKAADEVAEGKLNDHFPLVVWQTGSGTQTNMNVNEVISNRAIEMLGGELGSKKPVHPNDHVNKSQSSNDTFPTAMHIAAAVEVHKVLLPGLQKLHDALSAKSKEFAQVIKIGRTHTQDAVPLTLGQEFSGYVQQVQYAMVRIKAAMPRIYELAAGGTAVGTGLNTRIGFAEKVAAKVAALTGLPFVTAPNKFEALAAHDALVELSGAMNTAACSLMKIANDIRFLGSGPRSGLGELILPENEPGSSIMPGKVNPTQCEAMTMVAAQVMGNHVAVTVGGSNGHFELNVFKPMMIKNVLHSARLLGDASVSFTDNCVVGIQANTERINKLMNESLMLVTALNPHIGYDKAAKIAKTAHKNGSTLKETAIELGYLTAEQFDEWVKPKDMLGPK | −0.28 | YES | YES | 2.12
2 | Cyb5r3 (protein, UniProt Q9DCN2 2-301, looked up) NADH-cytochrome b5 reductase 3: GAQLSTLSHVVLSPVWFIYSLFMKLFQRSTPAITLENPDIKYPLRLIDKEVISPDTRRFRFALPSPQHILGLPIGQHIYLSTRIDGNLVIRPYTPVSSDDDKGFVDLVVKVYFKDTHPKFPAGGKMSQYLENMKIGDTIEFRGPNGLLVYQGKGKFAIRADKKSNPVVRTVKSVGMIAGGTGITPMLQVIRAVLKDPNDHTVCYLLFANQSEKDILLRPELEELRNEHSARFKLWYTVDKAPDAWDYSQGFVNEEMIRDHLPTPGEEPLILMCGPPPMIQFACLPNLERVGHPKERCFTF | 0.64 | YES | YES | 0.64
3 | Alad (protein, UniProt P10518 1-330, looked up) Delta-aminolevulinic acid …: MHHQSVLHSGYFHPLLRSWQTAASTVSASNLIYPIFVTDVPDDVQPIASLPGVARYGVNQLEEMLRPLVEAGLRCVLIFGVPSRVPKDEQGSAADSEDSPTIEAVRLLRKTFPSLLVACDVCLCPYTSHGHCGLLSENGAFLAEESRQRLAEVALAYAKAGCQVVAPSDMMDGRVEAIKAALLKHGLGNRVSVMSYSAKFASCFYGPFRDAAQSSPAFGDRRCYQLPPGARGLALRAVARDIQEGADMLMVKPGLPYLDMVREVKDKHPELPLAVYQVSGEFAMLWHGAQAGAFDLRTAVLETMTAFRRAGADIIITYFAPQLLKWLKEE | −1.50 | YES | YES | 1.57
4 | Atg7 (protein, UniProt Q9D906 1-698, looked up) Ubiquitin-like …: MGDPGLAKLQFAPFNSALDVGFWHELTQKKLNEYRLDEAPKDIKGYYYNGDSAGLPTRLTLEFSAFDMSASTPAHCCPAMGTLHNTNTLEAFKTADKKLLLEQSANEIWEAIKSGAALENPMLLNKFLLLTFADLKKYHFYYWFCCPALCLPESIPLIRGPVSLDQRLSPKQIQALEHAYDDLCRAEGVTALPYFLFKYDDDTVLVSLLKHYSDFFQGQRTKITVGVYDPCNLAQYPGWPLRNFLVLAAHRWSGSFQSVEVLCFRDRTMQGARDVTHSIIFEVKLPEMAFSPDCPKAVGWEKNQKGGMGPRMVNLSGCMDPKRLAESSVDLNLKLMCWRLVPTLDLDKVVSVKCLLLGAGTLGCNVARTLMGWGVRHVTFVDNAKISYSNPVRQPLYEFEDCLGGGKPKALAAAERLQKIFPGVNARGFNMSIPMPGHPVNFSDVTMEQARRDVEQLEQLIDNHDVIFLLMDTRESRWLPTVIAASKRKLVINAALGFDTFVVMRHGLKKPKQQGAGDLCPSHLVAPADLGSSLFANIPGYKLGCYFCNDVVAPGDSTRDRTLDQQCTVSRPGLAVIAGALAVELMVSVLQHPEGGYAIASSSDDRMNEPPTSLGLVPHQIRGFLSRFDNVLPVSLAFDKCTACSPKVLDQYEREGFTFLAKVFNSSHSFLEDLTGLTLLHQETQAAEIWDMSDEETV | −2.35 | YES | YES | 0.61
5 | Dbi (protein, UniProt P31786 2-87, looked up) Acyl-CoA-binding protein: SQAEFDKAAEEVKRLKTQPTDEEMLFIYSHFKQATVGDVNTDRPGLLDLKGKAKWDSWNKLKGTSKESAMKTYVEKVDELKKKYGI | −2.44 | YES | YES | 0.91
6 | Pdia3 (protein, UniProt P27773 25-505, looked up) Protein disulfide-isomerase A3: SDVLELTDENFESRVSDTGSAGLMLVEFFAPWCGHCKRLAPEYEAAATRLKGIVPLAKVDCTANTNTCNKYGVSGYPTLKIFRDGEEAGAYDGPRTADGIVSHLKKQAGPASVPLRTEEEFKKFISDKDASVVGFFRDLFSDGHSEFLKAASNLRDNYRFAHTNIESLVKEYDDNGEGITIFRPLHLANKFEDKTVAYTEKKMTSGKIKKFIQDSIFGLCPHMTEDNKDLIQGKDLLTAYYDVDYEKNAKGSNYWRNRVMMVAKKFLDAGHKLNFAVASRKTFSHELSDFGLESTTGEVPVVAIRTAKGEKFVMQEEFSRDGKALEQFLQEYFDGNLKRYLKSEPIPESNEGPVKVVVAENFDDIVNEEDKDVLIEFYAPWCGHCKNLEPKYKELGEKLSKDPNIVIAKMDATANDVPSPYEVKGFPTIYFSPANKKLTPKKYEGGRELNDFISYLQREATNPPIIQEEKPKKKKKAQEDL | 0.39 | YES | YES | 0.37
7 | Adamts5 (protein, UniProt Q9R001 262-930, looked up) A disintegrin and …: SISRARQVELLLVADSSMARMYGRGLQHYLLTLASIANRLYSHASIENHIRLAVVKVVVLTDKDTSLEVSKNAATTLKNFCKWQHQHNQLGDDHEEHYDAAILFTREDLCGHHSCDTLGMADVGTICSPERSCAVIEDDGLHAAFTVAHEIGHLLGLSHDDSKFCEENFGTTEDKRLMSSILTSIDASKPWSKCTSATITEFLDDGHGNCLLDLPRKQILGPEELPGQTYDATQQCNLTFGPEYSVCPGMDVCARLWCAVVRQGQMVCLTKKLPAVEGTPCGKGRVCLQGKCVDKTKKKYYSTSSHGNWGSWGPWGQCSRSCGGGVQFAYRHCNNPAPRNSGRYCTGKRAIYRSCSVTPCPPNGKSFRHEQCEAKNGYQSDAKGVKTFVEWVPKYAGVLPADVCKLTCRAKGTGYYVVFSPKVTDGTECRPYSNSVCVRGRCVRTGCDGIIGSKLQYDKCGVCGGDNSSCTKIIGTFNKKSKGYTDVVRIPEGATHIKVRQFKAKDQTRFTAYLALKKKTGEYLINGKYMISTSETIIDINGTVMNYSGWSHRDDFLHGMGYSATKEILIVQILATDPTKALDVRYSFFVPKKTTQKVNSVISHGSNKVGPHSTQLQWVTGPWLACSRTCDTGWHTRTVQCQDGNRKLAKGCLLSQRPSAFKQCLLKKC | −2.06 | YES | YES | 0.76
8 | Ptk2 (protein, UniProt P34152 2-1052, looked up) Focal adhesion kinase 1: AAAYLDPNLNHTPSSSTKTHLGTGMERSPGAMERVLKVFHYFESSSEPTTWASIIRHGDATDVRGIIQKIVDSHKVKHVACYGFRLSHLRSEEVHWLHVDMGVSSVREKYELAHPPEEWKYELRIRYLPKGFLNQFTEDKPTLNFFYQQVKSDYMQEIADQVDQEIALKLGCLEIRRSYWEMRGNALEKKSNYEVLEKDVGLKRFFPKSLLDSVKAKTLRKLIQQTFRQFANLNREESILKFFEILSPVYRFDKECFKCALGSSWIISVELAIGPEEGISYLTDKGCNPTHLADFNQVQTIQYSNSEDKDRKGMLQLKIAGAPEPLTVTAPSLTIAENMADLIDGYCRLVNGATQSFIIRPQKEGERALPSIPKLANSEKQGMRTHAVSVSETDDYAEIIDEEDTYTMPSTRDYEIQRERIELGRCIGEGQFGDVHQGVYLSPENPALAVAIKTCKNCTSDSVREKFLQEALTMRQFDHPHIVKLIGVITENPVWIIMELCTLGELRSFLQVRKYSLDLASLILYAYQLSTALAYLESKRFVHRDIAARNVLVSSNDCVKLGDFGLSRYMEDSTYYKASKGKLPIKWMAPESINFRRFTSASDVWMFGVCMWEILMHGVKPFQGVKNNDVIGRIENGERLPMPPNCPPTLYSLMTKCWAYDPSRRPRFTELKAQLSTILEEEKVQQEERMRMESRRQATVSWDSGGSDEAPPKPSRPGYPSPRSSEGFYPSPQHMVQTNHYQVSGYPGSHGIPAMAGSIYQGQASLLDQTELWNHRPQEMSMWQPSVEDSAALDLRGMGQVLPPHLMEERLIRQQQEMEEDQRWLEKEERFLKPDVRLSRGSIDREDGSFQGPTGNQHIYQPVGKPDPAAPPKKPPRPGAPGHLSNLSSISSPADSYNEGVKLQPQEISPPPTANLDRSNDKVYENVTGLVKAVIEMSSKIQPAPPEEYVPMVKEVGLALRTLLATVDETIPALPASTHREIEMAQKLLNSDLGELISKMKLAQQYVMTSLQQEYKKQMLTAAHALAVDAKNLLDVIDQARLKMLGQTRPH | −3.26 | YES | YES | 0.10
9 | Extl2 (protein, UniProt Q9ES89 1-330, looked up) Exostosin-like 2: MMRGCHICKLPGRVMGIRVLRFSLVVILVLLLVAGALTNLLPNIKEDKMLTLRREIKSPSKSALDSFTLIMQTYNRTDLLLRLLNHYQAVPSLHKVIVVWNNVGEKGPEELWNSLGPHPIPVIFKPQTANKMRNRLQVFPEVETNAVLMVDDDTLISAQDLVFAFSIWQQFPDQIIGFVPRKHVSTSSGIYSYGGFELQTPGPGNGDQYSMVLIGASFFNSKYLELFQKQPAAVHALIDETQNCDDIAMNFLVTRHTGKPSGIFVKPINMVNLEKETNGYSGMWHRAEHFLQRSYCINKLVNIYDGMPLKYSNIMISQFGFPYANHKSKM | −1.42 | YES | YES | 0.12
